The target in series [1] is T1, His-BFL-1ΔC (Homo sapiens, UniProt Q16548).
T1 construct: Recombinant anti-apoptotic BFL-1ΔC (aa 1-151) and its cysteine to serine mutants were cloned into PET17b; made in house; host or cells: Escherichia coli LOBSTR BL21(DE3)
T1 sequence (Q16548 1-151): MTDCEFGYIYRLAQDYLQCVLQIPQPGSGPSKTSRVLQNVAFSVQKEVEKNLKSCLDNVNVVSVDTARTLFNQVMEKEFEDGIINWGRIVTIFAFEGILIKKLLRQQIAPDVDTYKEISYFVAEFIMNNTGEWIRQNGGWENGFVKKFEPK
Kind of series: Streptavidin pulldown from recombinant protein mixture, BFL-1. It counts as binding. The conditions noted are these: equimolar mixture of recombinant MCL-1, BCL-XL, BFL-1 and biotinylated SAHB, silver stain. The method, then: WT His-BFL-1ΔC, BCL-XLΔC (tagless), and GST-MCL-1ΔNΔC (1 μM each) were combined and incubated with 3 mM DTT in PBS for thirty minutes at room temperature. Mixtures were treated with vehicle or the indicated C-terminally biotinylated NOXA SAHB (1 μM) for four hours and were then added to 30 μL PBS-washed high-capacity streptavidin (SA) agarose beads (Thermo Fisher Pierce) and incubated with rotation at room temperature for two hours. The beads were then washed three times with NP-40 lysis buffer (1% NP-40, 50 mM Tris pH 8, 100 mM NaCl, 2.5 mM MgCl2) and three times with PBS. To elute bound protein, beads were boiled for ten minutes with 10% SDS containing 10 mg/mL biotin. After elution, samples were boiled with 3×LDS and 2M DTT for twenty minutes. Gel electrophoresis using a 12% Bis-Tris gel was conducted on inputs (2%) and eluates (5 μL) and gels were developed using the Pierce silver staining kit (Thermo Fisher).

In series [2] the target is T2, MCL-1 (Homo sapiens, UniProt Q07820).
T2 construct: endogenous protein in lysates from the A375P melanoma cell line; endogenous in cells; host or cells: A375P melanoma cells (lysate)
Description: MCL-1 engagement in A375P lysates (streptavidin pulldown, MCL-1 western). In kind it is binding. To be noted: biotinylated SAHB. On the procedure:
(§1) Cultured A375P and U937 cells were trypsinized or harvested, respectively, washed with PBS, and lysed by incubating with 1% CHAPS lysis buffer (1% CHAPS, 150 mM NaCl, 50 mM Tris pH 7.4, 100 μM DTT). The protein concentrations of the soluble fraction were measured using a BCA kit according to the manufacturer's instructions (Thermo Scientific). Lysate samples (1 mg) were incubated with vehicle or C-terminally biotinylated NOXA SAHBs (30 μM) overnight in 1% CHAPS lysis buffer at 4° C. Biotin capture was accomplished by incubating the mixture with high-capacity SA agarose (Thermo Scientific) for 2 hours at 4° C., followed by centrifugation and washing the pelleted beads three times with lysis buffer (1 mL). Bead-bound proteins were eluted by boiling in 10% SDS containing 10 mg/mL biotin for 10 minutes and then subjected to electrophoresis and western blotting using BFL-1 (Abcam, #125259) and MCL-1 (Rockland #600-401-394S) antibodies.

Series [3] concerns the target T3, native BFL-1 (Homo sapiens, UniProt Q16548).
T3 construct: endogenous in cells; host or cells: A375P melanoma cells (A10); U937 AML cells (A12), lysates
T3 sequence (Q16548 1-175): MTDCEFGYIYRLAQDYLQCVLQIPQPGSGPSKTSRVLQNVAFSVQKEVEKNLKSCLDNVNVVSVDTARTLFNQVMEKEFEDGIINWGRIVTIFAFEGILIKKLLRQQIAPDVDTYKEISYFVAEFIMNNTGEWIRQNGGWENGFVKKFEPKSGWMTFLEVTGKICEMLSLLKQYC
Kind of series: BFL-1 targeting in U937 lysates (streptavidin pulldown, BFL-1 western). It counts as binding. The conditions noted are these: biotinylated SAHB.
Excerpt: We confirmed that both of our lead constructs could covalently crosslink to full-length BFL-1 protein, which bears a C-terminal helix that could potentially compete with D-NA-NOXA SAHBs for interaction at the canonical BH3-binding pocket in cancer cells. We generated recombinant full-length BFL-1 and expressed HA-tagged full-length BFL-1 in 293T cells, and then conducted crosslinking analyses in vitro and in treated cells, respectively.
as §1

The target of series [4] is T4, FLAG-MCL-1 / tBID (Homo sapiens, UniProt Q07820).
T4 construct: expressed in transfected cells; host or cells: 293T (lysate)
T4 sequence (Q07820 whole entry): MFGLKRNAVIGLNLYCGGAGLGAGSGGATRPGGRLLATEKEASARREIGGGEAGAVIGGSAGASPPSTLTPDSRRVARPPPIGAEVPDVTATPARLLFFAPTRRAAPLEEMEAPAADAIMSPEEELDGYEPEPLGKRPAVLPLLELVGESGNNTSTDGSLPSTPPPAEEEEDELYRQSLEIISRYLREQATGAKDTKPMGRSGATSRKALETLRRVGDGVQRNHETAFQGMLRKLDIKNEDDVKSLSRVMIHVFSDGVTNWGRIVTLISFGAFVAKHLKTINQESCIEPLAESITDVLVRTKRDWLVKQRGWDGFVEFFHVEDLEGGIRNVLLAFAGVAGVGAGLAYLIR
Description: MCL-1/tBID complex disruption in 293T lysates. The conditions noted are these: FLAG immunoprecipitation. It counts as binding. The method, then: To evaluate the capacity of biotinylated SAHBs to compete with tBID for interactions with BFL-1 and MCL-1, 293T cells were transfected with either HA-BFL-1ΔC C4S/C19S or FLAG-MCL-1 in the p3XFLAG-CMV-10 vector (Sigma) as above. After 24 hr, cells were trypsinized, washed with PBS, lysed in 1% CHAPS buffer, and the supernatant collected for protein concentration determination by BCA kit. Lysate samples (0.5 mg) were incubated with 0.25 μM recombinant tBID (R&D Systems) and 5 μM biotinylated NOXA SAHBs for 6 h at RT. The mixtures were then subjected to HA or FLAG immunoprecipitation, followed by western analysis using 1:1000 dilutions of HA (Sigma Aldrich, #12CA5), FLAG (Sigma-Aldrich, F7425), and BID (Santa Cruz sc-11423) antibodies.

Series [5] deals with T5, BFL-1ΔC C4S/C19S / FITC-BID BH3 (Homo sapiens, UniProt Q16548, C19S/C4S).
T5 construct: Recombinant anti-apoptotic BFL-1ΔC (aa 1-151) and its cysteine to serine mutants were cloned into PET17b; made in house; host or cells: Escherichia coli LOBSTR BL21(DE3)
T5 sequence (Q16548 1-151 C4S/C19S): T1 sequence (Q16548 1-151) with C4S, C19S
Description: Competitive fluorescence polarization binding assay, BFL-1ΔC C4S/C19S. The conditions noted are these: fluorescence polarization competition. The method, then: (§2) Fluorescence polarization (FP) assays were performed as previously described (Pitter et al., 2008 (supra)). Briefly, direct binding curves were first generated by FITC-BID BH3 (25 nM) with serial dilutions of anti-apoptotic protein, and FP was measured at 5 min on a SpectraMax M5 microplate reader (Molecular Devices). For competition assays, a serial dilution of acetylated or warhead-bearing NOXA SAHB was added to the indicated recombinant protein at ˜EC75 concentration, as determined by the direct binding assay. FITC-BID BH3 (25 nM) was then added and fluorescence polarization was measured at equilibrium. IC50 values were calculated by nonlinear regression analysis of competitive binding curves using PRISM software (GraphPad).

Series [6] concerns the target T6, BCL-XLΔC / FITC-BID BH3 (Homo sapiens, UniProt Q07817).
T6 construct: Recombinant anti-apoptotic BCL-XLΔC (aa 1-212) and MCL-1ΔNΔC (aa 172-329); GST (N, cleaved yes); made in house; host or cells: Escherichia coli BL21(DE3)
Kind of series: Competitive fluorescence polarization binding assay, BCL-XLΔC. On the procedure:
as §2

Series [7] has as its system KG-1 cells. Description: Cell viability (CellTiter-Glo) and CalcuSyn synergy, KG-1. In kind it is cell-based, human. The conditions noted are these: KG-1 AML cells.
Description: U937, MV4;11, OCI-AML-3, Jurkat, and KG-1 cells cultured in RPMI containing 10% FBS and penicillin-streptomycin were plated in 96-well plates (5×10^3 cells per well) and, after overnight incubation, treated with the indicated concentrations of D-NA-NOXA SAHB and/or AZD0156, Ku-60019, Ku-55933, AZD7762, olaparib, or S63845 (all from Selleck Chemicals) in RPMI supplemented with 5% FBS for the indicated durations. Cell viability and caspase-3/7 activation was measured using CellTiter-Glo and Caspase-Glo 3/7 chemiluminescence reagents (Promega), respectively, and luminescence was detected by a Spectramax M5 microplate reader. Synergy of drug interactions was calculated using the CalcuSyn software (Biosoft).

Residue numbers refer to the chain shown, from its start.

T6 sequence (Q07817 1-212, stated change not applied): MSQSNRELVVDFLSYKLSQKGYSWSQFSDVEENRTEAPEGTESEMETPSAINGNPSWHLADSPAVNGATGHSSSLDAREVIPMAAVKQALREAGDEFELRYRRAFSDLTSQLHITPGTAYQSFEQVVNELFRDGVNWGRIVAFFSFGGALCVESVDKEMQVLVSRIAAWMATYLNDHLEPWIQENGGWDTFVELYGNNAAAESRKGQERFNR

Consider JAT8LREFGDXLNFRQ [D-NA-NOXA-15 R31E], for which the “BFL-1 binding / pull down” value in series [1] is “striking competitive advantage for BFL-1 targeting over its acetylated counterpart”. Moreover, the MCL-1 engagement result in series [2] is listed as “approximately equivalent binding to MCL-1”. Moreover, the “targeting of native BFL-1” value in series [3] is “more effective binder of native BFL-1 protein between the two constructs”. Moreover, the “dissociation of FLAG-MCL-1/tBID interaction” value in series [4] is on record as “neither D-NA- nor Ac-NOXA15 R31E is able to dissociate the interaction”. Besides, the “disruption of BFL-1ΔC C4S/C19S / FITC-BID BH3 interaction” value in series [5] is on record as “displays the ability to disrupt the interaction”. Further, in series [6], the “competition for FITC-BID BH3 binding to BCL-XLΔC” value is “neither Ac- nor D-NA-NOXA-15 R31E is able to compete”. For the same substance, the “cytotoxicity, single agent” value in series [7] is “dose-responsive cytotoxicity”.

Values taken from patent US12466853B2, “Selective targeting of apoptosis proteins by structurally-stabilized and/or cysteine-reactive NOXA peptides” (priority 2017, dated 2025).
